# System: MS2 coat protein
# Assay: apparent KD of MS2 coat protein; higher = weaker reporter binding
# Conditions: Eterna round: R107
# How it was run: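 For every design, apparent KD is the median of normalised binding-curve fits from its clusters. The RNA switches were transcribed on-chip from Illumina sequencing clusters and titrated with SNAP-549-labelled MS2 coat protein (twofold steps, 0.7 or 1.5 nM to 3 µM; 0.8–1.5 h to 10–20 min per step). Titrations used 100 mM Tris-HCl pH 7.5, 80 mM KCl, 4 mM MgCl2, without or with constant ligand.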
# [1] = input ligand: theophylline 20 uM
# [2] = input ligand: theophylline 2 mM
# [3] = input ligand: tryptophan 2.4 mM
Sequence,apparent KD of MS2 coat protein (input ligand: arginine 13.2 mM),apparent KD of MS2 coat protein [1],apparent KD of MS2 coat protein [2],apparent KD of MS2 coat protein [3],apparent KD of MS2 coat protein (input ligand: none)
AUGACUCACAAAGAAGAUAAAAUGGGUGAACGAGGACCGGUACGGCCGCCACUCGGACAUGAGGAUCACCCAUGUCCAUGUGCAA [#24 Exclusion Tryptophan A],16 nM,24.3 nM,21 nM,–,–
AUGCAGGGCAACAGCCACUGUCACGGUGAUACCAGUACCCGUGCGUACCCUUGGCAGCAUCGUGGUACAUGAGGAUCACCCAUGU [Enatleceed],36.8 nM,503 nM,–,546 nM,–
AUGUAGAACCGAAGGAGCGCGAUAACAUGAGGAUCACCCAUGUAGUUUUGGUGGCUUCGAUCGCAGGUAGGUCGCGGAAGUAGUA [#03 Exclusion - Arginine B],37.9 nM,97.6 nM,77 nM,55.4 nM,35.9 nM
AUGUCGUUGAAUAUAGCGGCUUGGUGUGAUACCAGAAUGAUCUAAUUCCCUUGGCAGCAUUACAUGAGGAUCACCCAUGUUCCAG [SSTheo A #21],23.6 nM,47.4 nM,57.3 nM,48.7 nM,39.1 nM
AUUAAGGAUAUGUAGAAGGCGGAGAAGAGACGAGGACCGGUACGGCCGCCACUCGUGUUAGUUAACAUGAGGAUCACCCAUGUAA [#06 Tryptophan A Same State],14.3 nM,72.3 nM,112 nM,17.1 nM,60.7 nM
AUUAAUUGUCGUGAUACCAGACAUACAUGAGGAUCACCCAUGUUAAGUAACAUUUUUUAUGUCCCUUGGCAGCACUUUUUAAUUA [JR_Nu_SSTheophyB_Sub017],22 nM,24.8 nM,–,19.7 nM,–
AUUAUCAUGGUCAUUUAUAUUUCGUCAGAUACCAGACUAGAUAUAGUCCCUUGGCAGCUGUUACAUGAGGAUCACCCAUGUUAUU [JR_ExcTheophyA_Sub018],44.7 nM,70.6 nM,–,103 nM,–
AUUCAUGAAAACAUGACAUGAGGAUCACUCCGAGGACCGGUACGGCCGCCACUCGCGAGGAGGCACAUGAGGAUCACCCAUGUUA [SS Tryp A #2],36 nM,119 nM,143 nM,–,–
AUUUAUAGUUGUGAUACCAGACUUACAUGAGGAUCACCCAUGUUACUUAAAUGUUUUGAUGUCCCUUGGCAGCACUGUUUUUUUA [JR_Nu_ExcTheophyB_Sub029],16.1 nM,22.6 nM,–,16.4 nM,–
CAAAUAAGAACAAACAAAUAACGGUUUUCGCGAGGACCGGUACGGCCGCCACUCGUGUGAAAUAACACAUGAGGAUCACCCAUGU [3'end-1],31.8 nM,44.6 nM,47.9 nM,–,–
CAACUGGCAGAGGAUACCAGAUCAUUUAGAAACAUGAGGAUCACCCAUGUCGUAAGGAUAAUCCCUUGGCAGCCUAUCCGCCUCG [theeternabot_sameState_MS2_Theo_B_48],14.2 nM,16.6 nM,–,14.5 nM,–
CACAUGAGGAUCACCCAUGUGUAAUAUGAAGGAGCGUCGGAAAUGACAGGUAGGUCGCAUGAAAUGCAAGUGUGUGAGGUUGUGA [EAA NP+V+V2 #12],9.17 nM,17.7 nM,10.5 nM,10.9 nM,10 nM
CACGCACGAUCGGCCGCCACUCAUGUAGCUUACAUGAGGAUCACCCAUGUAUUUUCUUUCUUUUAGAGGACCGGGAUCGUGCGUG [#03 Same State - Tryptophan B],25 nM,48.5 nM,35 nM,–,–
CACGGAUGAGUGGAUCACCCUCAUAAUAACCGAGGACCGGUACGGCCGCCACUCGAAAACCGUGACCUGUACGAAAAGUGCAGGA,28 nM,486 nM,782 nM,708 nM,33.5 nM
CCAUAAGUACCGGUCCUCAGAUCCUCAUGACGAGGACCGGUACGGCCGCCACUCGAAACAUGAGGAUCACCCAUGUAAUAAUAUU [Brourdmod14],19.3 nM,45.4 nM,31.1 nM,–,–
CCCAUACAUGAGGAUCACCCAUGUGUUGAUACCAGCAUAUGUAGAUGCCCUUGGCAGCAAGCUUGGGUCACUGGAAAACAUCUAA [theeternabot_sameState_MS2_Theo_A_38],23.8 nM,27.4 nM,–,22.6 nM,–
CCGUUUUAUGGCGACAUAGGGCGGACUGAAGGAGCGGUAUAAAAGCCAGGUAGGUCGCAGAGAUCCACAUGAGGAUCACCCAUGU [!0.aA],29.4 nM,45.8 nM,41 nM,51 nM,39.7 nM

# — the supplement of paper PMC9170038
